These results are taken from patent publication US20160017053A1 (IMMUNOGEN, published 2016).

Assay [1] has as its target human EGFR (epidermal growth factor receptor) (human) (UniProt P00533). Nature of the assay: flow cytometry, binding curve of the biotinylated ligand on MDA-MB468 cells.
Assay [2] addresses T1, human EGFR (epidermal growth factor receptor) (human, UniProt P00533 25-1210). Briefly: cell-based or functional assay.
The target in assay [3] is T1, human EGFR (epidermal growth factor …). Nature of the assay: flow cytometry on MDA-MB468 or A431 cells; EC50 of the curve taken as apparent Kd.
Assay [4] shares this target. Briefly: flow cytometry on MDA-MB468 cells.
For assay [5] the target is unchanged. Briefly: flow cytometry on MDA-MB468 cells, apparent Kd from non-linear regression of geo mean fluorescence against [Ab] (M).

Molecule biotinylated EGF (Invitrogen) (ligand) displayed an EC50 in assay [1] of 1.8 nM.

B1: muEGFR-8-SMCC-DM1 conjugate (antibody, V domains shown)
VH: EVQLQQSGAELVKPGASVKLSCTTSGFNIKDTYIHWVKKRPEQGLEWIGRIDPTNGNNKYDPKFQGKATITADTSSNTAYLQLSSLTSEDTAVYYCTREDGYRYDDWYFDVWGAGTTVTVSS
VL: QIVLTQSPASMSASPGEKVTMTCSASSSVSYMHWYQQKSGTSPKRWIYATSKLASGVPARFSGSGSGTSYSLTISSMEAEDAATYYCQQWSSNPLTFGAGTKLELKR
modifications: DM1 linked through SMCC to the antibody; drug load and sites not stated
notes: Maytansinoid conjugate of the whole murine EGFR-8 antibody; its preparation is not described separately
With B1, in assay [2], the “EC50 of in vitro cytotoxicity on NCI-H226 cells (WST-8)” value came out at 0.68 nM, the “EC50 of in vitro cytotoxicity on NCI-H292 cells (WST-8)” value came to 0.43 nM and the “EC50 of in vitro cytotoxicity on NCI-H322M cells (WST-8)” value is 3.07 nM. For the same molecule, the Kd in assay [3] was 4.54 nM.

B2: murine EGFR-8 antibody (antibody, V domains shown)
VH: EVQLQQSGAELVKPGASVKLSCTTSGFNIKDTYIHWVKKRPEQGLEWIGRIDPTNGNNKYDPKFQGKATITADTSSNTAYLQLSSLTSEDTAVYYCTREDGYRYDDWYFDVWGAGTTVTVSS
VL: QIVLTQSPASMSASPGEKVTMTCSASSSVSYMHWYQQKSGTSPKRWIYATSKLASGVPARFSGSGSGTSYSLTISSMEAEDAATYYCQQWSSNPLTFGAGTKLELKR
notes: Mouse monoclonal antibody purified from hybridoma; also called muEGFR-8
As for B2, the Kd in assay [3] is 1.43 nM.

B3: chimeric ML66-SMCC-DM1 (antibody, V domains shown)
VH: QVQLKESGPGLVQPSQTLSLTCTVSGLSLASNSVSWIRQPPGKGLEWMGVIWNHGGTDYNSVIKSRLSISRDTSKSQVFLKMNSLQTEDTAMYFCVRKGGIYFDYWGQGVMVTVSS
VL: DTVLTQSPALAVSPGERVTISCRASESVSTLMHWYQQKSGQQPKLLIYLASHRESGVPARFSGSGSGTDFTLTIDPMEADDTATYYCQQSRNDPWTFGGGTNLELK
modifications: Maytansinoid DM1 is linked to the antibody through the non-cleavable SMCC linker. The attachment sites and drug load for chML66 are not stated, and the letters cannot carry them.
As to B3, in assay [2], the “EC50 of cytotoxicity on KB cells with 1 µM naked chML66 antibody blocking” value came out at 30 nM and the “EC50 of cytotoxicity on KB cells without blocking antibody” value amounted to 3 nM.

B4: huML66-SPDB-DM4 conjugate (antibody, human IgG1, kappa, V domains shown)
VH: QVQLQESGPGLVKPSETLSLTCTVSGLSLASNSVSWIRQPPGKGLEWMGVIWNHGGTDYNPSIKSRLSISRDTSKSQVFLKMNSLTAADTAMYFCVRKGGIYFDYWGQGVLVTVSS
VL: DTVLTQSPSLAVSPGERATISCRASESVSTLMHWYQQKPGQQPKLLIYLASHRESGVPARFSGSGSGTDFTLTIDPMEAEDTATYYCQQSRNDPWTFGQGTKLELKR
modifications: DM4 linked through SPDB; sites not stated; DM4 linked through SPDB; 3.5-4 DM4 molecules per antibody; sites not stated
In the case of B4, the Kd in assay [3] was found to be 2.93 nM.

B5: rat ML66 antibody (antibody, V domains shown)
VH: QVQLKESGPGLVQPSQTLSLTCTVSGLSLASNSVSWIRQPPGKGLEWMGVIWNHGGTDYNSVIKSRLSISRDTSKSQVFLKMNSLQTEDTAMYFCVRKGGIYFDYWGQGVMVTVSS
VL: DTVLTQSPALAVSPGERVTISCRASESVSTLMHWYQQKSGQQPKLLIYLASHRESGVPARFSGSGSGTDFTLTIDPMEADDTATYYCQQSRNDPWTFGGGTNLELKR
notes: Rat monoclonal antibody purified from hybridoma
Consider B5, for which, in assay [4], the “EC50 (read off the curve)” value was approximately 2 nM. Besides, the Kd in assay [5] came to 1.94 nM.

B6: huML66-SMCC-DM1 conjugate (antibody, human IgG1, kappa, V domains shown)
VH: QVQLQESGPGLVKPSETLSLTCTVSGLSLASNSVSWIRQPPGKGLEWMGVIWNHGGTDYNPSIKSRLSISRDTSKSQVFLKMNSLTAADTAMYFCVRKGGIYFDYWGQGVLVTVSS
VL: DTVLTQSPSLAVSPGERATISCRASESVSTLMHWYQQKPGQQPKLLIYLASHRESGVPARFSGSGSGTDFTLTIDPMEAEDTATYYCQQSRNDPWTFGQGTKLELKR
modifications: DM1 linked through SMCC; sites not stated; DM1 linked through SMCC; 3.5-4 DM1 molecules per antibody; sites not stated
On to B6, for which the Kd in assay [3] amounted to 2.33 nM.

B7: humanized ML66 (huML66) antibody (antibody, human IgG1, kappa, V domains shown)
VH: QVQLQESGPGLVKPSETLSLTCTVSGLSLASNSVSWIRQPPGKGLEWMGVIWNHGGTDYNPSIKSRLSISRDTSKSQVFLKMNSLTAADTAMYFCVRKGGIYFDYWGQGVLVTVSS
VL: DTVLTQSPSLAVSPGERATISCRASESVSTLMHWYQQKPGQQPKLLIYLASHRESGVPARFSGSGSGTDFTLTIDPMEAEDTATYYCQQSRNDPWTFGQGTKLELKR
With B7, the “EC50 (read off the curve)” value in assay [4] is approximately 1 nM. In addition, the Kd in assay [3] was 1.12 nM; in assay [5], 1.23 nM.
